For one series, the system named is Dnase1. The series can be described thus: fluorescence polarization. The settings on record: FP: 50 mM Hepes pH 7.5 (Results say pH 7.4), 100 mM NaCl, 0.1 mM EDTA (1 mM for Dnase1L3/Dnase1), 1% glycerol, 1 mM TCEP, 0.1% PEG 6000, 20 nM dsDNA, 30 min at …. For orientation: In fluorescence polarisation assays a small probe gives low polarisation when free and higher when bound to something large.

Series [1] addresses T1, Dnase1L3 CTD peptide (cleaved from SH3-CTD) (human, UniProt Q13609).
T1 chain: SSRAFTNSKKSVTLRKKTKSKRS
Put plainly: fluorescence polarization; 100 mM NaCl, 0.1 mM EDTA; FP: 50 mM Hepes pH 7.5 (Results say pH 7.4), 100 mM NaCl, 0.1 mM EDTA (1 mM for Dnase1L3/Dnase1), 1% glycerol, 1 mM TCEP, 0.1% PEG 6000, 20 nM dsDNA, 30 min at. The settings on record: protein: recombinant; tags: TEV-cleaved from His-SH3 fusion; label: 5'-FAM on strand 1; blunt.

The target of a further series is T2, Dnase1L3 R132A (human, UniProt Q13609 21-305, R132A).
T2 sequence: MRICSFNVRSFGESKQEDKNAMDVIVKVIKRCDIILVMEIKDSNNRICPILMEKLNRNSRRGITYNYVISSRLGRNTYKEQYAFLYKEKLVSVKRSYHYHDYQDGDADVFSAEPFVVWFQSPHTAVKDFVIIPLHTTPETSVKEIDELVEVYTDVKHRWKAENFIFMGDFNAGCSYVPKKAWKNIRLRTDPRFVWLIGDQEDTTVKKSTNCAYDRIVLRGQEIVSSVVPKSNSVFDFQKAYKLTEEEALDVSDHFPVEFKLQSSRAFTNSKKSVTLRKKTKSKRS
The series can be described thus: fluorescence polarization; 1 mM EDTA; FP: 50 mM Hepes pH 7.5 (Results say pH 7.4), 100 mM NaCl, 0.1 mM EDTA (1 mM for Dnase1L3/Dnase1), 1% glycerol, 1 mM TCEP, 0.1% PEG 6000, 20 nM dsDNA, 30 min at. The note with it: protein: recombinant; blunt.

In a further series the target is T3, Dnase1L3 WT (human, UniProt Q13609 21-305).
T3 sequence: T2 sequence with A112R
Described as above. The note with it: protein: recombinant; tags: His-MBP removed by TEV; blunt.

Changes are numbered by the printed parent chain.

With “GTGTTCGGACTCTGCCTCAAGACGGTAGTCAACGTGCTTG (double strand) [FITC 40-mer dsDNA]”, in the series on Dnase1, the Kd came out at 2.9 µM.

B1: FAM 40-mer dsDNA (dsDNA)
DNA 1: GTGTTCGGACTCTGCCTCAAGACGGTAGTCAACGTGCTTG
DNA 2: CAAGCACGTTGACTACCGTCTTGAGGCAGAGTCCGAACAC
Turning to B1, the Kd in series [1] was determined as 4.9 µM.

B2: FITC 40-mer dsDNA (dsDNA)
DNA 1: B1 DNA 1
DNA 2: B1 DNA 2
Regarding B2, the Kd in the series with Dnase1L3 R132A stood at 4.95 µM; with Dnase1L3 WT it was 0.99 ± 0.33 µM.

As usually defined, the Kd is a measure of binding affinity in units of concentration.
